# Experimental data taken from patent US20230287363, “DNA POLYMERASE, APTAMER, WARM-START DNA POLYMERASE AND PREPARATION METHODS AND APPLICATION THEREOF” (Sun Yat-Sen University, published 2023).
# T1: RHAU23-Bst (DHX36 RHAU23 peptide fused to N-terminus of Bst-LF) (Homo sapiens / Geobacillus …)
# T1 chain: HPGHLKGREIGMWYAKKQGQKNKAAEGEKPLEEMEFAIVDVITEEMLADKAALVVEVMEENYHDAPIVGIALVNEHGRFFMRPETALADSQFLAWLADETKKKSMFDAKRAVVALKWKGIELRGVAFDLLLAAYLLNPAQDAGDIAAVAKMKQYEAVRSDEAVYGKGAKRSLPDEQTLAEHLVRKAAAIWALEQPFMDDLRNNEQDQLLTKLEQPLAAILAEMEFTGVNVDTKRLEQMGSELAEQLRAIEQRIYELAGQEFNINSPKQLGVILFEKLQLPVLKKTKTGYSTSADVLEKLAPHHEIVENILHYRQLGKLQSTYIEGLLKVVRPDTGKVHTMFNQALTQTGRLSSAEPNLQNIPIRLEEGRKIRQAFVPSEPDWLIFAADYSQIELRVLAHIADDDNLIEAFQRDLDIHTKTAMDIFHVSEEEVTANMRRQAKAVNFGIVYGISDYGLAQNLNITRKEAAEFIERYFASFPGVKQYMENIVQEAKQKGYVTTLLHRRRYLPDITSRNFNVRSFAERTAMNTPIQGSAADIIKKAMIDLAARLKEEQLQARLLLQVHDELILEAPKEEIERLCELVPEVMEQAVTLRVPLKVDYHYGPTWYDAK
# Target: T1, RHAU23-Bst (DHX36 RHAU23 peptide fused …)
# Experiment: EMSA; Kd stated only as nM level; K+ buffer, 4 C
# Conditions: tags: His-tag, pCold-I, E. coli BL21; label: 5'-FAM (EMSA); bulged G4 with flanking dsDNA
# Description: Oligonucleotides were purchased from Sangon Biotech Co., Ltd (China). Double-stranded DNAs (dsDNA) were paired from the complementary single-stranded DNA (ssDNA) by denaturing at 95° C. for 5 min and subsequently cooling to 25° C. in a buffer containing 10 mM Tris-HCl (pH 7.4), 75 mM KCl and 0.5 mM EDTA. 20 nM 5′-FAM-labeled aptamer DNA (Table 1) was dissolved in a first buffer, denatured at 95° C. for 5 min and subsequently cooled to 25° C. at a rate of 0.1° C./s; the first buffer contained 10 mM Tris-HCl (pH 7.4), 75 mM KCl, 0.5 mM EDTA, and 0.2 mg/ml BSA. Then each aptamer DNA and the specified concentration of DNA polymerase fused to G-quadruplex binding peptide were added into a second buffer, to bind at 4° C. for 1 hour, to form a DNA-protein complex; the second buffer contained 20 mM Tris-HCl (pH 8.8), 10 mM (NH₄)₂SO₄, 50 mM KCl, 2-8 mM MgSO₄, and 0.1% Tween-20.
# The binding of aptamer to DNA polymerase was detected by electrophoretic mobility shift assay. Specifically, DNA-protein complex was electrophoresed on 8% or 12% non-denatured polyacrylamide gel containing 75 mM KCl at 4° C. for 2 h in 1×TBE buffer containing 75 mM KCl. The DNA-protein complex was photographed by the ChemiDoc MP imaging system (Bio-Rad) and digitized by the Image Quant 5.2 software.
row,Binder,binding result
1,PDGFRB-Fd-G4 (structured_DNA) DNA 1: CCTGAAGCAGACAGCTAGTGAATTCGGGAGGGCGGCGGGGCAGGGTACTTGCGTATAACTGTTCCATAGT DNA 2: ACTATGGAACAGTTATACGCAAGTATTTTTTTTTTTTTTTTTTTTTGAATTCACTAGCTGTCTGCTTCAGG,binds
2,T4B1-Fd-G4 (structured_DNA) DNA 1: CCTGAAGCAGACAGCTAGTGAATTCGTTTTGGTGGGTGGGTGGGTACTTGCGTATAACTGTTCCATAGT DNA 2: ACTATGGAACAGTTATACGCAAGTATTTTTTTTTTTTTTTTTTTTTGAATTCACTAGCTGTCTGCTTCAGG,binds
